Here are results for one molecule from patent US11807689 (TG THERAPEUTICS, dated 2023).

In test [1] the target is C1q Receptor in the complement system (rabbit serum complement) (rabbit). Kind of test: cell-based or functional assay.
The target in test [2] is FcγIIIA Receptor on the effector cells (UniProt P08637 17-254, limits assumed). Kind of test: cell-based or functional assay.
Test [3] addresses T1, FcγRIIIa 158F receptor (human, UniProt P08637 17-208, limits assumed).
T1 construct: in the Octet assay part of a 'Human Fc receptor panel' loaded on Anti-Penta His biosensors, so probably His-tagged; also called FcγRIIIA F158
Kind of test: SPR, receptor amine-coupled to the chip. Here is the method: (§1) The method follows a direct binding assay methodology where the FcγRIIIa receptor is directly immobilized onto the flow cell on a sensor chip surface and samples are injected over the chip to assess binding. […] Independent duplicates of sample dilutions are injected over the chip, followed by surface regeneration between each cycle. The binding is measured in response units (RU). The kinetics of the binding reaction is determined by measuring changes in SPR due to the increase in mass in the close proximity to the biosensor chip surface. Change in the mass of the complex as a function of time is visualized as a sensorgram.
(§2) The equilibrium dissociation constants (K_D) of each sample is determined for each receptor.

Test [4] has as its target T2, FcγRIIIa 158V receptor (human, UniProt P08637 17-208, limits assumed).
T2 construct: in the Octet assay part of a 'Human Fc receptor panel' loaded on Anti-Penta His biosensors, so probably His-tagged; also called FcγRIIIA V158
Kind of test: SPR, receptor amine-coupled to the chip. The method, then: as §1, §2
(In general: SPR reads the build-up and loss of mass on a sensor chip optically.)

T2 sequence (P08637 17-208 F176V limits assumed): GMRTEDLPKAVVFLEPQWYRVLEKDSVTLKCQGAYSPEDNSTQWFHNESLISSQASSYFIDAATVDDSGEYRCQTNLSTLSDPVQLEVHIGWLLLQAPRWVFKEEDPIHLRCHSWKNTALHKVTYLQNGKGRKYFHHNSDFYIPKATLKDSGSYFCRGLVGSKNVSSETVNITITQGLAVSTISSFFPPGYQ
T1 sequence (P08637 17-208 limits assumed): as the sequence (P08637 17-208 F176V limits assumed) above, with V160F counted along it
FcγIIIA Receptor on the effector cells, sequence (P08637 17-254 limits assumed): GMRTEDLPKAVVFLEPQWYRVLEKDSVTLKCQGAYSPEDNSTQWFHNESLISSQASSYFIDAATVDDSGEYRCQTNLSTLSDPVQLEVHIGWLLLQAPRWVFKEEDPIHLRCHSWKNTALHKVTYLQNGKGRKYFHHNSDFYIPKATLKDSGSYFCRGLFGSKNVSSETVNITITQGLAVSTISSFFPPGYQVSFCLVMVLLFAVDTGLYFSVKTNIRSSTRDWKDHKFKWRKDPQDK

B1: TG-1101 (TG Therapeutics, Inc.) (antibody, human IgG1, kappa)
heavy: not shown
light: QIVLSQSPAILSASPGEKVTMTCRASSSVSYMHWYQQKPGSSPKPWIYATSNLASGVPARFSGSGSGTSYSFTISRVEAEDAATYYCQQWTFNPPTFGGGTRLEIKRTVAAPSVFIFPPSDEQLKSGTASVVCLLNNFYPREAKVQWKVDNALQSGNSQESVTEQDSKDSTYSLSSTLTLSKADYEKHKVYACEVTHQGLSSPVTKSFNRGEC
notes: Chimeric IgG1 made in rat YB2/0 cells, low-fucose N-glycan profile; also called ublituximab; UBX
As to B1, the “CDC EC50 (Jeko-1 cells, rabbit serum)” value in test [1] is 0.67 µg/mL. For the same molecule, the “ADCC EC50, fold lower than OCREVUS ®” value in test [2] is roughly 25 fold. The “fold higher affinity than OCREVUS®” value in test [3] is roughly 10 fold; in test [4] it was roughly 15 fold.
